Here are results for one molecule from US20200239556A1 (BIOVERATIV USA, published 2020).

Assay [1] concerns the target T1, human Factor Bb (human, UniProt P00751 260-764).
T1 construct: The protein in the assay was purified human Factor Bb; also called fBb
Description: direct ELISA screen of hybridoma clones on fBb. On the technique in general: An ELISA detects its analyte on a solid surface through an enzyme-linked reagent.

The target in assay [2] is T2, full length human Complement Factor B (human, UniProt P00751 26-764).
T2 construct: also called fB; FB
T2 sequence (P00751 26-764 limits assumed): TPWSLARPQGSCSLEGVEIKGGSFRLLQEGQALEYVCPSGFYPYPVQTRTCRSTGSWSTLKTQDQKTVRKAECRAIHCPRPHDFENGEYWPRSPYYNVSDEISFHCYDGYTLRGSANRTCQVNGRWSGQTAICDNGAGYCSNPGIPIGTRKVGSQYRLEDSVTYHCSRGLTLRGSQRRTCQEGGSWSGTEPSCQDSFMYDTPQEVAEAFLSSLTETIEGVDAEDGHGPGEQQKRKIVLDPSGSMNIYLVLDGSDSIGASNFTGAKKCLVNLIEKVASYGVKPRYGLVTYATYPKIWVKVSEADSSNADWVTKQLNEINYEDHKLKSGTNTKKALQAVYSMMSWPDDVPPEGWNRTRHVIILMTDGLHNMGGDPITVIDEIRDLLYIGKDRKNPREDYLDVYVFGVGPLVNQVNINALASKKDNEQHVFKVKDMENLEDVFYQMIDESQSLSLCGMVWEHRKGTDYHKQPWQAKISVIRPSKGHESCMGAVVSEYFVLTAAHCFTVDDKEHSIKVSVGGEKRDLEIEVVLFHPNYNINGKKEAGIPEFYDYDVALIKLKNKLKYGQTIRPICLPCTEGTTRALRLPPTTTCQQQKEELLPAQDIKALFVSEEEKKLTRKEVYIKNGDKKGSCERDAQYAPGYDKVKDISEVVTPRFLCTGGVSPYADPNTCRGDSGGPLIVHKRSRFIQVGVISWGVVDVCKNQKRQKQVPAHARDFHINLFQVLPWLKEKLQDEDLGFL
Description: ELISA, antigen coated on the plate, HRP goat anti-mouse detection.

T1 sequence (P00751 260-764 limits assumed): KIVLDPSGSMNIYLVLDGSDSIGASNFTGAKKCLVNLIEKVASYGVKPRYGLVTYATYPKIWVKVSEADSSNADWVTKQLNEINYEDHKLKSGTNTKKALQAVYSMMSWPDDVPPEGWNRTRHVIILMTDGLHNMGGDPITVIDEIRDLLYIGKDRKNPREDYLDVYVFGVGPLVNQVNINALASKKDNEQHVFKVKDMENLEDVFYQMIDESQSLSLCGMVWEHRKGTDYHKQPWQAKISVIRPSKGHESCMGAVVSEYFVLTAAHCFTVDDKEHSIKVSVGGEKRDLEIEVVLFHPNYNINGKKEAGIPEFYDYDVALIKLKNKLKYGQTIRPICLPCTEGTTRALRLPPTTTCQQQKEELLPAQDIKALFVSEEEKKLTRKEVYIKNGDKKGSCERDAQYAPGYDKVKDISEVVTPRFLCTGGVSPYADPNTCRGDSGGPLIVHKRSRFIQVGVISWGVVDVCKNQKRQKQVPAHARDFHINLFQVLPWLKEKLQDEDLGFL

B1: anti-Factor B Ab (antibody, V domains shown)
VH: EVQLQQSGPELVKPGASVKMSCKASGYSFTDYLMNWVKQSHGKSLEWIGRINPYNGDAFYNQRFKGKATLTVDKSSSTAHMELRSLTSEDSALYYCARLENDYGFTYWGQGTLVTVSA
VL: DIVMTQAAFSNPVTLGTSASISCSSSKSLLHSNGITYLYWYLQRPGQSPQLLIYRMSNLASGVPDRFSGSGSGTDFTLRISRVEAEDVGVYYCAQMLERPWTFGGGTKLEIK
notes: Mouse monoclonal antibody purified from hybridoma supernatant (NZBW mice immunised with fBb); also called FBb Ab; anti-Factor B antibody
Consider B1, for which the binding result in assay [1] and in assay [2] was “binds” throughout.
